Assay results published in US20260137781A1 (University of California, published 2026).

How the values were obtained:
[1] = target: Integrin beta-2/Integrin alpha-M recombinant protein complex (R and D 4047-AM) (UniProt P11215 17-1105); assay: phage display selection on immobilised complex, clones evaluated by phage ELISA
Protocol: Briefly, Integrin-beta-2 recombinant protein complexes were immobilized on Maxisorp Immuno plates (ThermoFisher, #12-565-135) and used for positive binding selections with library phage pools that were first exposed to neutravidin coated wells to deplete nonspecific binders. After four rounds of binding selections, clonal phage was prepared and evaluated by phage ELISA and sequencing as described (PMID: 23219464).

[2] = target: T1, recombinant Itgβ2 (Integrin beta-2 complex, alpha chain not stated for this result); assay: BLI (Octet), antibody captured on AHQ biosensors, Integrin beta-2 complex in solution, 1:1 fit
T1 construct: Bought R&D Systems heterodimer; also called Integrin-beta 2 complexes
Protocol: (§1) To determine the binding kinetic parameters of the antibodies, BLI experiments were performed on an Octet HTX instrument (Sartorius) at 1000 rpm and 25° C. All proteins were diluted in an assay buffer (PBS, 1% BSA, 0.05% Tween 20). Test and control antibodies at a concentration of 2 μg/ml were first captured on AHQ biosensors to achieve the binding signals of 0.8-1.3 nm. Unoccupied Fc-binding sites on the antibody-coated sensors were subsequently quenched by 20 μg/mL of the Fc protein. After equilibration with the assay buffer, the biosensors were then dipped for 600 s into wells containing 5-fold serial dilution of Integrin-beta 2 complexes (association phase), followed by a transfer back into an assay buffer for additional 600 s (dissociation phase). Assay buffer alone served as a negative control. Binding response data were reference subtracted and were globally fitted with 1:1 binding model using ForteBio's Octet Systems software 9.0.

[3] = target: T2, Integrin beta-2/Integrin alpha-L recombinant protein complex (R and D 3868-AV) (UniProt P20701 26-1090); assay: BLI (Octet), antibody captured on AHQ biosensor, integrin complex in solution at 300/60/12 nM; the legend paragraph 15 names Itgal/Itgb2 as the antigen
T2 construct: Bought complex; also called Itgal/Itgβ2; ItgaL/Itgβ2
Protocol: as §1

B1: Antibody D3-7065 (antibody, V domains shown)
VH: EVQLVESGGGLVQPGGSLRLSCAASGFTISYYYMHWVRQAPGKGLEWVASISSSSGYTYYADSVKGRFTISADTSKNTAYLQMNSLRAEDTAVYYCARGAMDYWGQGTLVTVSS
VL: DIQMTQSPSSLSASVGDRVTITCRASQSVSSAVAWYQQKPGKAPKLLIYSASSLYSGVPSRFSGSRSGTDFTLTISSLQPEDFATYYCQQFSSGSWAPITFGQGTKVEIK
notes: It was purified on protein A and captured on AHQ biosensors for BLI
What does the source list for B1?
binding result [1]: binds; Kd [2]: 1.56 nM; binding result [3]: binds
